Measured values from US8637043B2, “Compositions useful as ligands for the formyl peptide receptor like 1 receptor and methods of use thereof” (Chemocentryx, Inc., priority 2001, dated 2014).
Values joined by “and” are separate entries in the source; they are usually repeats but may differ in a detail not shown here. Identical values can stand only once. Blank lines part the entries; values can stand above or below the molecule they belong to. Ends that are not written are not given here.

Assays:
[1] = tested on: mature Dendritic Cells; test: Calcium mobilization, mature dendritic cells; assay type: cell-based, human
Protocol: Human recombinant CKβ8-1(25-116) chemokine was obtained from R&D Systems (Minneapolis, Minn.). The peptide SHAAGtides SEQ ID NO:1 and SEQ ID NO:6 and a control protein (the reverse sequence of SEQ ID NO:1) were synthesized and HPLC-purified using routine techniques as described in Sambrook et al., 1989, and Ausubel et al., 1999.
Immature DCs were derived by culturing CD14+ monocytes in the presence of GM-CSF and IL4. Briefly, monocytes were cultured in a T-175 flask at 10^6 cells/ml in RPMI/10% FCS. Recombinant human GM-CSF and IL4 were added on day 0, 2, 4 and 6 to a final concentration of 1000 u/ml and 500 u/ml, respectively. Cells were harvested on day 7 as immature DCs and characterized for surface protein expression by FACS analysis. DC maturation was carried out by culturing day 6 immature DCs in macrophage-conditioned medium (MCM). Briefly, day 6 immature DCs were harvested by centrifugation and resuspended in MCM at 10^6 cells/ml. The medium was supplemented with 1000 u/ml of GM-CSF and 500 u/ml IL4. After three more days of culture, cells were harvested as mature DCs and characterized by surface protein expression flow cytometry.
MCM was prepared as follows: PBMCs isolated from buffy coat were incubated at 37° C. in a plastic flask pre-coated with 10 mg/ml human IgG (Sigma, St Louis, Mo.) for 30 minutes. After 30 minutes, non-adherent cells were removed and adherent cells were washed three times with DPBS, then cultured in RPMI/10% human serum. Conditioned-medium was collected after 24 hours. TNF-α concentration, which is critical for DC maturation, was determined by using a TNF-α ELISA kit (R&D Systems, Minn.). The final TNF-α level in MCM was adjusted to 50 u/mi by mixing with RPMI/10% human serum, and was stored at −80 freezer until use.
Ca^2+ mobilization responses were performed using an intracellular ratiometric fluorescent dye, Indo-1. Cells were loaded with Indo-1/AM (3 μM; Molecular Probes (Eugene, Oreg.)) in culture medium (45 min, 20° C., 10^7 cells/mi). After dye loading, cells were washed once (10 ml PBS) and resuspended at 10^6 cell/ml in HBSS containing 1% FBS. Cytosolic [Ca^2+] release was determined using excitation at 350 nm using a Photon Technology International fluorimeter (excitation at 350 nm, ratioed dual emission at 400 and 490 nm).

[2] = tested on: neutrophils; test: Cross-desensitization with leukotactin, neutrophils; assay type: cell-based, human
Protocol: In cross-desensitization tests tests, cells were stimulated sequentially with leukotactin and then the chemokines CKβ8(1-99), CKβ8(25-99), CKβ8-1(1-116), and CKβ8-1(25-116). On HEK293-CCR1 transfectants (prepared as in Example 1), leukotactin induced similar patterns of receptor desensitization to all variants.
Similar receptor cross-desensitization tests were performed using both monocytes and neutrophils (prepared as in Example 2).

[3] = target: monocytes; test: 125I-MIP-1α binding competition, monocytes; parameters: species or system human; settings: for IC50: Monocytes; for MIP-1α displacement on monocytes compared with HEK293-CCR1 cells: comparison in words
Protocol: The binding characteristics of CCL23 variants was compared in human CCR1 expressing cells. The ability of MIP-1α and the CCL23 variants CKβ8(1-99), CKβ8(25-99), CKβ8-1(1-116) and CKβ8-1(25-116) to compete with ^125I-MIP-1α binding was investigated in HEK293-CCR1 cells (prepared as in Example 1). The cells were incubated with ^125I-labeled MIP-1α (final conc. {dot over (˜)}0.05 nM) in the presence of unlabeled chemokine (3 hours at 4° C.: 25 mM HEPES, 140 mM NaCl, 1 mM CaCl2, 5 mM MgCl2 and 0.2% BSA, adjusted to pH 7.1). Reactions mixtures were aspirated onto PEI-treated GF/B glass filters using a cell harvester (Packard). The filters were washed twice (25 mM HEPES, 500 mM NaCl, 1 mM CaCl2, 5 mM MgCl2, adjusted to pH 7.1). Scintillant (MicroScint-10; 35 μl) was added to dried filters and the filiters counted in a Packard Topcount scintillation counter. Data were analyzed and plotted using Prism software (GraphPad Software, San Diego, Calif.).
Simiar binding competition tests were conducted on monocytes and neutrophils. These cells were prepared as in Example 2.

- IC50 [3]: 55 nM
B1: CKβ8-1(1-116): alternatively spliced form of CKβ8, 116 amino acids, human recombinant chemokine (protein, listed as Homo sapiens)
chain: RVTKDAETEFMMSKLPLENPVLLDMLWRRKIGPQMTLSHAAGFHATSADCCISYTPRSIPCSLLESYFETNSECSKPGVIFLTKKGRRFCANPSDKQVQVCMRMLKLDTRIKTRKN
- desensitization by leukotactin prestimulation [2]: inactive
- MIP-1α displacement on monocytes compared with HEK293-CCR1 cells [3]: higher MIP-1α displacement activities

- IC50 [3]: 5 nM and 5.1 nM
B3: CKβ8-1(25-116): novel NH2-terminal truncated form of CKβ8-1, SEQ ID NO: 16, human recombinant chemokine (protein, listed as Homo sapiens)
chain: MLWRRKIGPQMTLSHAAGFHATSADCCISYTPRSIPCSLLESYFETNSECSKPGVIFLTKKGRRFCANPSDKQVQVCMRMLKLDTRIKTRKN
- calcium flux [1]: partially active
- desensitization by leukotactin prestimulation [2]: did not desensitize
- MIP-1α displacement on monocytes compared with HEK293-CCR1 cells [3]: higher MIP-1α displacement activities
- MIP-1α displacement activity on monocytes versus HEK293-CCR1 cells ([3]; fold higher on monocytes): over 10 fold

Second part, the molecule before the results:

Molecule: MLWRRKIGPQMTLSHAAY [SEQ ID NO: 6]
- calcium flux [1]: partially active

Molecule: MLWRRKIGPQMTLSHAAG [SEQ ID NO: 1]
- calcium flux [1]: partially active

B2: CKβ8(25-99): known truncated CKβ8 variant, human recombinant chemokine from R&D Systems (protein, listed as Homo sapiens)
chain: RFHATSADCCISYTPRSIPCSLLESYFETNSECSKPGVIFLTKKGRRFCANPSDKQVQVCMRMLKLDTRIKTRKN
- desensitization by leukotactin prestimulation [2]: inactive
- IC50 [3]: 0.25 nM
